In paper PMC8591604 (Journal of Medicinal Chemistry, 2021):
[ ]: non-standard residue; d: D form. pY = N[C@@H](Cc1ccc(OP(=O)(O)O)cc1)C(=O)O

Target: T1, N-SH2 domain of SHP2 (residues 2–111) (human, UniProt Q06124 2-111)
T1 construct: SHP2 (PTPN11), human, N-terminal SH2 domain, residues 2-111; also called wild-type N-SH2; source: E. coli (DE3) Rosetta2, purified (Ni-NTA)
T1 sequence (looked up): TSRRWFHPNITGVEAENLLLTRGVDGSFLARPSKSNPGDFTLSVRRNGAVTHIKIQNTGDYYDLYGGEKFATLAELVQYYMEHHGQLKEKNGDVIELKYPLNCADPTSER
Experiment: fluorescence polarisation; fluorescence anisotropy, displacement: 1.0 nM CF-P9 with 40 nM N-SH2 titrated with unlabelled peptide; fluorescence buffer
Conditions: both partners purified

binding result: binds
B1: P8, unlabeled IRS-1 pY1172 peptide, residues −2 to +5 (peptide)
peptide: Ac-LN[pY]IDLDL-NH2
SMILES: CC[C@H](C)[C@H](NC(=O)[C@H](Cc1ccc(OP(=O)(O)O)cc1)NC(=O)[C@H](CC(N)=O)NC(=O)[C@H](CC(C)C)NC(C)=O)C(=O)N[C@@H](CC(=O)O)C(=O)N[C@@H](CC(C)C)C(=O)N[C@@H](CC(=O)O)C(=O)N[C@@H](CC(C)C)C(N)=O
notes: IRS-1, residues −2 to +5 around pY1172 (rat numbering; P9 without residue −3); source: synthetic peptide
